The target in assay [1] is TNF-α. Kind of assay: competition ELISA against plate-bound TNFRI190; relative affinity from IC50.
In assay [2] the target is TNF-α. As to the kind of experiment: cell-based or functional assay.

With “Met-TNFRI126 (from UniProt P19438 41-166) (receptor)”, the Result Affinity (%) relative to wild-type TNFRI126 with TNF-α [1] was 100%. In the assay with TNF-α [2], “Met-TNFRI171 (from UniProt P19438 41-211) (receptor)” returned a Relative activity (cell based assay) (Folds) of 1 fold.

These data come from patent US20130237472A1.
